Experimental data reported in patent US12337027B2, “Methods and compositions relating to lung repair” (THE CHILDREN'S MEDICAL CENTER CORPORATION, priority 2018, dated 2025).
“Also recorded” adds a separate entry of the source.

B1: sFlt1: soluble variant of the VEGF receptor encoded by the Flt1 gene (protein, listed as Homo sapiens)
chain: MVSYWDTGVLLCALLSCLLLTGSSSGSKLKDPELSLKGTQHIMQAGQTLHLQCRGEAAHKWSLPEMVSKESERLSITKSACGRNGKQFCSTLTLNTAQANHTGFYSCKYLAVPTSKKKETESAIYIFISDTGRPFVEMYSEIPEIIHMTEGRELVIPCRVTSPNITVTLKKFPLDTLIPDGKRIIWDSRKGFIISNATYKEIGLLTCEATVNGHLYKTNYLTHRQTNTIIDVQISTPRPVKLLRGHTLVLNCTATTPLNTRVQMTWSYPDEKNKRASVRRRIDQSNSHANIFYSVLTIDKMQNKDKGLYTCRVRSGPSFKSVNTSVHIYDKAFITVKHRKQQVLETVAGKRSYRLSMKVKAFPSPEVVWLKDGLPATEKSARYLTRGYSLIIKDVTEEDAGNYTILLSIKQSNVFKNLTATLIVNVKPQIYEKAVSSFPDPALYPLGSRQILTCTAYGIPQPTIKWFWHPCNHNHSEARCDFCSNNEESFILDADSNMGNRIESITQRMAIIEGKNKMASTLVVADSRISGIYICIASNKVGTVGRNISFYITDVPNGFHVNLEKMPTEGEDLKLSCTVNKFLYRDVTWILLRTVNNRTMHYSISKQKMAITKEHSITLNLTIMNVSLQDSGTYACRARNVYTGEEILQKKEITIRGEHCNKKAVFSRISKFKSTRNDCTTQSNVKH

Legend:
[1] = test system: C57B16 mice following left pneumonectomy; test: Compensatory lung growth after left pneumonectomy (lung volume by water displacement); format: in vivo; conditions: for lung growth: compensatory lung growth after pneumonectomy
Procedure: (§1) C57B16 mice were randomized to receive daily intraperitoneal injection of either saline or soluble fms-like tyrosine kinase 1 (sFlt1) at a dose of 20 mcg/kg following left pneumonectomy. On post-operative day 4, mice underwent pulmonary function studies and were subsequently euthanized for lung volume measurement. Lung volume was determined by water displacement method. […] This therapy can potentially improve lung growth and pulmonary functions in patients suffering from severe pulmonary hypoplasia.
(§2) sFlt1 was administered to mice according to the experimental design depicted in FIG. 6. […] The dose response to sFlt1 was investigated (FIG. 8) and, in mice, 20 mcg/kg sFlt1 was the optimal dosing regimen (FIG. 9).

[2] = test system: mice; test: Exercise tolerance tests; format: in vivo
[3] = test system: C57B16 mice following left pneumonectomy; test: Pulmonary function studies after left pneumonectomy; format: in vivo
Procedure: as §1, §2

[4] = test system: mice after 70% partial hepatectomy; test: Liver regeneration after 70% partial hepatectomy; format: in vivo; conditions: 10, 20, or 50 ug/kg daily intraperitoneal vs saline, POD 4
Procedure: Mice underwent 70% partial hepatectomy and were randomized to receive saline (control) or one of 3 doses of Flt1 (10, 20, or 50 ug/kg) via intraperitoneal injection. Treatment was performed daily and mice were euthanized on post-operative day (POD) 4 for organ harvest. Liver samples were weighed and normalized against body weight.

[5] = test system: liver and spleen; set-up: species or system mice; conditions: mouse, in vivo
Procedure: LW/BW: liver weight/body weight, SW/BW: spleen weight/body weight.
as §1

[6] = test system: VEGF; test: VEGF levels after sFlt1 administration; format: in vivo, mice; conditions: FIG. 11
[7] = test system: HIF-2α; test: HIF-2α levels after sFlt1 administration (incl. immunohistochemistry); format: in vivo, mice; conditions: FIG. 11, 12
Text: FIG. 12 depicts immunohistochemical measurements of HIF-2α levels.

[8] = sFlt1 20 mcg/kg daily intraperitoneal vs saline, post-operative day 4

Molecule | effect of HIF-2α inhibition on sFlt1-induced lung growth ([1]; PT-2385 given with sFlt1, FIG. 15) | effect of HIF-2α inhibition on sFlt1 effect on exercise tolerance ([2]; PT-2385 given with sFlt1, FIG. 16, 17) | inspiratory capacity (IC/BW) [3, 8] | pulmonary compliance [3, 8] | pulmonary elastance [3, 8] | pulmonary mechanics ([3]; sFlt1 at 20 mcg/kg, FIG. 10) | liver weight normalized against body weight [4] | organ mass of liver (LW/BW: liver weight/body weight) [5] | organ mass of spleen (SW/BW: spleen weight/body weight) [5] | levels of VEGF [6] | levels of HIF-2α [7] | lung growth [1] | lung growth ([1]; listed as soluble VEGF receptor) | optimal dosing regimen (dose response) ([1]; in mice, FIG. 9) | lung volume (LV/BW: lung volume/body weight) [1, 8] | baseline activity in exercise tolerance tests ([2]; FIG. 16)
CS(=O)(=O)c1ccc(Oc2cc(F)cc(C#N)c2)c2c1[C@H](O)C(F)(F)C2 [PT-2385, reference compound] | blunt the effects of sFlt1 | blunt the effects of sFlt1 |  |  |  |  |  |  |  |  |  |  |  |  |  | 
B1 |  |  | significantly higher; also recorded: improve; also recorded: increases inspiratory capacity | improves | improves | improved pulmonary mechanics | no difference in liver weight | does not change | does not change | unexpectedly increases | unexpectedly increases | increases lung growth; also recorded: accelerated lung growth | accelerated compensatory lung growth | 0.02 mg/kg | significantly higher lung volume; also recorded: increases lung volume | increased baseline activity
